# Measured values from the nanobody polyreactivity screen of Harvey et al. (2022).
# Experiment: yeast display, Sf9 membrane polyspecificity reagent, FACS + sequencing; frameworks hold sequencing errors
# In short: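 Polyreactivity labels are assigned by the sorting gate from which each nanobody was recovered. The gates were low and high (top ~1%), set on anti-HA fluorescence for expression and streptavidin fluorescence for reagent binding. Before sorting, galactose-induced (36–48 hours) yeast display cells were stained for 1 hour at 4 °C with 10% biotinylated, detergent-solubilized Sf9 membrane reagent.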
row,Sequence,polyreactivity (PSR sort gate)
1,QVQLVESGGGLVQAGGSLRLTCAASGRIYTYNAMGRYRKAPGKERELVATITWRGGGTYYADSVKGRFTISRDNAKNTVYLQMNSLKPEDTAVYYCIRRLPGDGQYGYRRFDYWGQGTQVTVSS,low polyreactivity
2,QVQLVESGGGLVQAGGSLRLSCAASGSTFSDNVMGWYRQAPGKERELVAGITRSGGRTYYADSVKGRFTISRDNAKNTVDLQMNSLKPEDTEVYYCAARRSGSKSGLFDYWGQGTQVTVSS,low polyreactivity
3,QVQLVESGGGLVQAGGSLRLSCAASGSTFYWYAMGWYRQAPGKERELVAAISSGGSTYYADSVKGRFTISRDNAKNTVYLQMNSLKPEDTAVYYCAAQTPYYLWYDTGDYWGQGTQVTVSS,high polyreactivity
4,QVQLVESGGGLVQAGGSLRLSCAASGRIFGEKAMGWYRQAPGKERELVADITWSGTSTYYADSVKGRFTISRDNAKNTVYLQMNSLKPEDTAVYYCAASATLFSSRGKRYYWGQGTQVTVSS,low polyreactivity
5,QVQLVESGGGLVQAGGSLRLSCAASGSIFPGYAMGWYRQAPGKERELVATITWSASETYYADSVKGRFTISRDNAKYTVYLQMNSLKPEDTAVYYCNAEVYELFVVYSALDYWGQGTQVTVSS,low polyreactivity
6,QVQLVESGGGLVQAGGSLRLSCAASGTFDYYDMGWYRQAPGKERELVAGITSGGSTDYADSVKGRFTISRDNAKNTVYLQMNSLKPEDTAVYYCAADPFRIHTYDYWGQGTQVTVSS,low polyreactivity
7,QVQLVESGGGLVQAGGSLRLSCAASGFIFYQYAMGWYRQAPGKERELVAAISRRGGGTYYADSVKGRFTISRDNAKNTVYLQMNSLKPEDTAVYYCNTDRLARITFGGYDYWGQGTQVTVSS,high polyreactivity
8,QVQLVESGGGLVQAGGSLRVSCAASGFTFGPNAMGWYSQAPGKERELVAAISQSGGSTYADSEKGRFTISRDNAKNTDYLHMNSLKPEDTAVYYCAAEFPDYYWWYEYWGQGTQVTVSS,high polyreactivity
9,QVQLVESGGGLDQAGGSLRLSCAASGIILYGYTMGGYRQAPGKERELVAAINRGGSTNYADSVKGRFTISRDNAKNTVYLQMNSLKPEDTAVYYCAVDTVVASTYDYWGQGTQVTVSS,low polyreactivity
10,QVQLVESGGGLVQAGGSLRLSCADSGLTFIYYAMGWYRQAHGKERELVAAISSSGGRTYYADSVKGRFTISRDNAKNTVYLQMNSLKPEDTAVYYCATRYWTQSSSFDYWGQGTQVTVSS,high polyreactivity
11,QVQLVESGGGLVQAGGSLRLSCAASGFIFRYYVMGWYRQAPGKERELVAAITGSGGSTYYADSVKGRFTISRDNAKNTVYLQMNSLKPEDTAVYYCAARVWPIVQNYYWGQGTQVTVSS,high polyreactivity
12,QVQLVESGVGLVQAGGSLRLSCAASGSTFLTNAMGWNRQAPGKERELVAAINWRGDSTYYADSVKGRFTISRDNAKNTVYLQMNSLKPEDTAVYYCAAKYNHVTDEYDYWGQGTQVTVSS,high polyreactivity
13,QVQLVESGGGLVQAGGSLRISCAASGSIFYWNTMGWYRQAPGKERELVATITRSGGSTRYADSVKGRCTISRDNAKITVYLQMNSLKPEDTAVYYCAAYRVYKRVVRGFDYWGQGTQVTVSS,low polyreactivity
14,QVQLVESGGGLVQAGGSLRLSCAASGSIFVYYAMGWYRQSPGKERELVAAINWSGGSTYYADSVKGRFTISRDNAKKTVYLQMNSLKPEDSAVYYCNAYLSPYDYDYWGQGTQVTLSS,low polyreactivity
15,QVQLVESGGCLVQAGGSLRLSCAASGRIFGLYAMGWYRQAPGKEREFVAAISSSGSDTYYADSVKGRFTISRDNAKNTVYLQINSLKPDYTAVYYCAKRRLYLCFDYNSSAYEYGYWGQGTQVTVSS,low polyreactivity
16,QVQLVESGGGLVQAGGSLRLSCAASGSIFTPNGRGWYRPAPGKDSELVAAISQSGGSTFYADSVKGRFTMSRDNAKYTVYLQMNSLKPEDSAVYYCATEYYGPVYDLDYDYWGQGSQVTVSS,low polyreactivity
17,QVQLVESGGGLVQAGGSLRLSCAASGSTFSYYAMGWYRKAPGKERELVAAITIGGRTNYADSVKGRFTISRDNAKNTVYFQMNSLKPEDTAVYYCAASRVRSLRSYVWDLLLMDSWGQGTQVTVSS,high polyreactivity
18,QVQSVESCGGLVQAGRSLRLSCAPSGSIFADYAMGWYSQAPGKERELVAVISRRGGTTYYADSVKGRFTISRDNAKNSVYLQMNSLKPEDTAVYYCAARRSFNEYDYWGKGTQVTVSS,high polyreactivity
19,QVQLVESGGGLVQAGGSLRLSCAASGRIFKYYAMGWYRQAPGKERELVAAITYSGGSTYADSVKGRFTISRDNAKNTVYLQMNSLKPEDTAVYYCAVARRSRVVSSIRGDYWGQGTQVTVSS,high polyreactivity
20,QVQLVESGGGLVQAGGSLRLSCAASGSTFRYNAMGWYRQAPGKERELVAAISSSGGSTRYADSVKGRFTISRDNANNTVYLQMNSLKPEDTAVYYCAVRFYDWRYYYWGQGTQVTVSS,high polyreactivity
21,QVQLVESGGGLVQAGGSLRLSCASSGGIFYSYDMGWYRQAPGKERELVAAITWIGGSTYYADSVKGRFTISRDNAKNTVYFQMNSLKPEDTAVYYCAAEILWGGYDYWGQGTQVSVSS,low polyreactivity
22,QVQLVESGGGLVQAGGSLRLSCAASGLTFYRYAMGWYRQAPGKERELVAAITSGGGRTYYADSVKGRFTISRDNAKNTVYLQMNSLKPEDTAVYYCAADRGDYRWRGLTPSSYGYWGQGTQVTVSS,high polyreactivity

row,Sequence,polyreactivity (PSR sort gate)
1,QVQLVESGGGLVQAGGSLRLSCAASGFTFQGNVMGWYRQAPGKERELVAVITSGGSTYYADSVKGRFTISRDNAKNTVYLQMNSLKPEDTAVYYCAKLYNSYTWKYGYWGQGTQVTVSS,high polyreactivity
2,QVQLVESGGGLVQAGGSLRLSCAASGSIFRWNAMGSYRQAPGKERELVAVINSSGGSTYYADSVKGRFTISRDNAKNTVYLQMNSLKPEDTAVYYCAAVIYKIIYGQYAYDYWGQGTQVTVSS,low polyreactivity
3,QVQLVESGGGLVQAGVSLRLSCAASGIIFAGYVMGWYRQAPGKARELVAAISYRGGSTNYADSVKGRFTISRDNAKNTVYLQMNSLKPEDTAVYYCNRYSRDSRYGYLKFGYDYWGQGTQVTVSS,high polyreactivity
4,QVQLVESGGGVVQAGGSLRLSCAASGSTFRYNARGWYRQAPGKEREFVAAITTSGVRTYYADSVKGRFTISRDNAKNTVYLQMNSLKPEDTAVYYCARRTPGTRWNYDYWGQGTQVTVSS,high polyreactivity
5,QVQLVESGGGLVQAGGSLRLSCDASGRTFGNNAMGWYRQAPGKERELVASISSSGGTNYADSVKGRFTISRDNAKNTVYVQLNSLKPEDTAVYYCAKRKFTARQRYNYWGQGTQVTVSS,high polyreactivity
6,QVQHVESGGGLVQAGGSLRLSCAASGSTFYGYAMGWYRQAPGKERELVARISSSSGRTYYADSVKGRFTISRDNAKNTVYLQMNSLKPEDTAVFYCAARFLWSVFGRKGGYWGQGTQVTVSS,low polyreactivity
7,QVQLVESGGGLVQAGGSLRLSCAATGLIFSLYAMGWYRQAPGKERELVAAISASDGSTYYADSVKGRFTISRDNAKNTVYLQMNSLKPEDTAVYYCAADSRPTQEYDYWGQGTQVTVSS,low polyreactivity
8,QVQLVDSGGGLVQAGGSLRLSCAASGSTFRLYAMGWYRQAPGKERALVAAITRGGITYYADSVKGRFTISRDNAKNTVYFQMNSLKPEDTAVYYCAATTFGPYALYPRYYYWGQGTQVTVSS,high polyreactivity
9,QVQLVQSGGGLVQAGGSLRLSCAASGYTIYLKAMGWNRQAPGKERELVAAITGSGDDTYYADSVKGRFTISRDNAKNTVYLQMKIMIPEDTAVYYCAARPYYTSSYKDYEYWGQGTQVTVSS,high polyreactivity
10,QVQLVESGGGLVQAGGSLRLSCAASGSIFERYAMGWYRQAPGKERELVATISKSGDSTYYADSVKGRFTISRDNAKNTVYLQMNSQKPEDTAVYYCAADGWSETSDATFYYWGQGTQVTVSS,low polyreactivity
11,QVQLVDSGGGLVQAGGSLRLSCAASGRIFSVYAMGWYRQAPGNERELVAAITRVGSTNYADSVKGRFTISRDNAKNTVYLQMNSLKPEDTAVYYCAASKYGSLSGYWGQGTQVTVSS,high polyreactivity
12,QVQLVESGGGLVQAGGSLRLSCAASGSTFVYNDMGWYRQAPGKEREFVAVINWSGGRTYADSVKGRFTISRDNAKNTVYLQMNSLKPEDTAVYYCNARRRTGYRPAMDYWGQGTQVTVSS,high polyreactivity
13,QVQLVESGGGLVQAGGSLRLSCAASGSIFGYYAMGWYRQAPGKERELVAAISWSDGSTYYADSVKGRFTISRDNAKNTVYLQMNMLKPEDTAVYYCAARFTPYITSDDGHYDYWGQGTQVTVSS,low polyreactivity
14,QVQLVESGGGLVQAGGSLRLSCAASGSTIINYAMGWYRQAPGKERELVAVITSDDGSTYYADSVKGRFTISRDNAKNTVYLQMNSLKPEDTAVYYCAADYYDQRYRPGPWYDYWGQGSQVTVSS,low polyreactivity
15,QVQLVESGGGLVQAGGSLRLSCAASGLIFLDYAMGWNRQAPWKERELVAAITGRGGSTYYADSVKGRFTISRDNAKNTVYLQMNSLKPDDTAVYDCAAQYSYPTPYRTYEYDYWGQGTQVTVSS,high polyreactivity
16,QVQLVESGGGLVQAGGSLRLSCAASGITFRYYAMGWYRQAPGKERELVAAITRSGSTTYADSVKGRFTISRDNAKNTVYLQMNSLKPEDTAVYYCAVDYYYLTGGVDYWGQGTQVTVSS,low polyreactivity
17,QVQLVESGGGIVQAGGSLRLSCAASGLTFWYYAMGGYRQAPGKVRELVARITRSGVGTYYADSVKGRFTISRDNAKNTVYLQMNSLKPEDTAVYYCAARYWVSGFRAGYYWGQGTQVTVSS,high polyreactivity
18,QVQLVESGGGLVQAGGSLRLSCAASGYIFYYYAMGWYRQAPGKERELVAAINRSGTSTYYADSVKGRFTISRDNAKNTVYLQMNSLKPEDTAVYYCAAVAGNKLYYWGQGTQVTVSS,high polyreactivity
19,QVHLVESGGGLVQAAGSLRLSCAASGITFAPYAMGWYRQAPGKERELVAGINTGGSTYYADSVKGRFTISRDKEKNTVYLQMNSLKPEDTAFYYCATDSYPADQDIPGCDYWGQGTQVTVSS,low polyreactivity
20,QVQLVESGGGLVQAGGSLRLSCDASGTTFVFNAMGWYRHAPGKERELVAAISFSSDTTHYADSVKGRFTISRDNAKNTVYLQMNSLKPEDTAVYYCAADFVGYARNWYYFCGQGTQVTVSS,low polyreactivity
21,QVQLVESGGGLVQAGGILRLSWAASGSTFTAYAMGWYRQAPGKERELVAAINTSGGNTYYADSVKGRFTISRDNAKNTVYFQMNSLKPEDTAVYYCAADYKARYSEKFDYWGQGTQVSVSS,low polyreactivity
